This passage reports protein production results from a protein production outcome set (Wang et al. 2014).

A short description of the series: label from the status in PepcDB records.

With “MRRYRTCDNPPPSNGGRACGGPDSQIQRCNTDMCPVDGSWGSWHSWSQCSASCGGGEKTRKRLCDHPVPVKGGRPCPGDTTQVTRCNVQACPGGPQRARGSVIGNINDVEFGIAFLNATITDSPNSDTRIIRAKITNVPRSLGSAMRKIVSILNPIYWTTAKEIGEAVNGFTLTNAVFKRETQVEFATGEILQMSHIARGLDSDGSLLLDIVVSGYVLQLQSPAEVTVKDYTEDYIQTGPGQLYAYSTRLFTIDGISIPYTWNHTVFYDQAQGRMPFLVETLHASSVESDYNQIEETLGFKIHASISKGDRSNQCPSGFTLDSVGPFCADEDECAAGNPCSHSCHNAMGTYYCSCPKGLTIAADGRTCQDIDECALGRHTCHAGQDCDNTIGSYRCVVRCGSGFRRTSDGLSCQDINECQESSPCHQRCFNAIGSFHCGCEPGYQLKGRKCMDVNECRQNVCRPDQHCKNTRGGYKCIDLCPNGMTKAENGTCIDIDECKDGTHQCRYNQICENTRGSYRCVCPRGYRSQGVGRPCMDIDECENTDACQHECKNTFGSYQCICPPGYQLTHNGKTCQDIDECLEQNVHCGPNRMCFNMRGSYQCIDTPCPPNYQRDPVSGFCLKNCPPNDLECALSPYALEYKLVSLPFGIATNQDLIRLVAYTQDGVMHPRTTFLMVDEEQTVPFALRDENLKGVVYTTRPLREAETYRMRVRASSYSANGTIEYQTTFIVYIAVSAYPY”, the protein production result was “failed”.

For “MRSATDLLDELNAVDESARIEAKRASDMGKSVMETVIAFANEPGLDGGYLLLGVDWAINDKGDTVYRPVGLPDPDKVQRDLASQCASMLNVALRPEMQLEQVGGKTLLVVYVPEADVTHKPIYKKATGLPGGAYRRIGSSDQRCVDEDLWVLRGLEHHHHHH”, the protein production result is reported as “not failed”.

Take “MRSGRPLYWIFLLLAFSLLAVLVYVCVAVIPDLRNHPNARRSLKRVRSTLDPQREQRDASRRLDVADTPENRRQLAETLLARGDYAQAAEHYQGALRGLYRDDPHLMLGLAKAQFGLGQPQQTRQTLDALIAANPSFRSHDGHLLYARAVEGSGDTDAALHEYDTLAQGYPGEEARVRYAQLLQRIARNDQARAVYEQVLRHAAASPKHYQREQRAWVDLARKGLRELDTGA”: the protein production result is recorded as “failed”.

For the sequence “MRSLMATRAKPNKKQNASARGKKPAWLGGIGLRQVRMFCGLVLFTYLLSHFLNHALGNISPEALHAGVLWHLEIWQFLPVAILFYGSVTVHAGLGLWALYQRRQFRWKTLEPLQLVLGLSVPLMIYSHVIVMRLGNVLYDQDRLYPQVLYNYFVASPSYRAWLMVAVMLIAWTHGCIGLYVWLRIKPAFRRAMPWLLAAAVLIPTLALLGFYQGGRTVAREAASPQWQANNLAPANLGTPEQQQTLEAIGNGFLIFYLGLIALALIARAVRAIIERRGGMVRLTYDGERSIRVPKGLTVLEATQRHNIPHASACGGRARCSTCRIRVLGDPATLPPPSPREAFVLASIGTGDDPSIRLACQLKPTQDLTFLPVFPPRNVAAARKAARAARIGEERYLVSMFVDMRGSTKLAESRLPFDTVFIVNRFLGAVSRSVIACGGQPNQFVGDGMLALFGLAETPREACRNAVRAAAAIGAAIDELNNFLGHDLPEPIRFGIGIHSGEVVVGEIGYRDHMVFTALGDSVNVASRLQDMTKSLGCETLLSDELRATAGLSEQALPTLELEIRGRTEPMLVCVVERAGDLVAVLNEDLVLA”, the protein production entry is recorded as “failed”.

Take “MRSRGEPLPAGGRMKTLAFVALALAGISWGLGFPTGKLILRETDAAHMVLLRFLVAAVAAAPFALRRPEVRALFRSPIVLLAGALYGVAFLVQFEGLAHVSVTVAALLVGAMPALIAVSARVLGEKVSRLSWAGVAAATLGAALIAGKPDGASSPLGVALSIAALFLFLTWLLVLRRAPPAPNPMAIPAVSIIVAALVVLPIALIMHGPPKLALSAPAWTAIVAQGVLATLLATAAWQYGAAQVGAASAGVFINIEPLMGAACGVLLFGDHLTAALFAGGLLIIGGSFAVVMGERQAKPGEIQATVAPTP”: the protein production entry was “failed”.

Consider “MRTAVAVPYHSGIRLPLLFEKNARMTETIDTNVFNLAPVAMWIEDFSEVKSQFDIWRAEGIEDIRAFLLEDLSRVAACSQKIRVIEVNAKTLELFEARDQAHLVDNLHRIFRDDMLESHVNELSELWAGRTEFTSNAVNYSIGGRRLDIQLRGTVIPGHEDTLGRLLLTTEDVTEREEARRKELLNRRYAEGMFKHSPVSLWVEDFSRVRRLIEEVRERGIVDFRVFMDVHPEFVRQCMSEIRVIDVNQATLDLFCAADRQVLLQRLGDIFRGEMEKPFREQLIELWNGNLTHHREVVNYALDGSERHVLLHFSVFPGHERDWSLVQVALTDITARKKAEAYLEYLGKHDVLTKLHNRAFYSDELNRLERSALRPVSAIVIDLNGLKEANDKLGHDAGDALLRRVGEVLNGVVTAPNHAARIGGDEFAILLPGADKQVAAAMVDTVYELLKINNQFYSSAPLSLSLGVATTEAGETMESLVRRADMNMYEQKNAYYAALRNRSADNNDTTKGGSQSETTSLKRLF”, for which the protein production entry is listed as “failed”.

For “MRTEPQPLHLPVFRAILASMGEGIIFADADDRIRYINAAAEDIRGIIAGNYLGRSIVSIHSPASEGRIRRLIAGLKGGDIPFSTRVIHVREKIFENSYYPIRNENGIYEGTLLISRDITEKELLKEENNSLREQVRADFACGGMIGKSHAMEPVFHMIRATAALDSTILISGESGTGKELVACAIHQMSPRHKNPFVKVNCAALPETLLESELFGHERGAFTGAVRERKGKFEQAHLGTIFLDEIGEMPLAAQAKLLRVIQGKTLERIGGNREIAVDVRIIAATNKDLRREVERGAFREDLFYRLNVIPIHLPPLRERREDILPLAEHFLSVYAERMRKPVHCIAPDARKALLDYDYPGNVRELENAIERGVALSMGETITLADLAPYFVTGASAAPAGAALPKEPPTATLSRAVSVAEQEAIREALQTTGNRKGVAAKLLGISRKTLWEKLKQMERT”, the protein production result was “failed”.

For the sequence “MRTIAFALALLATPVAAELEAARDLMDAGRFDEAYAALWPAARSGNAEAEELIGVIYAMGLGRPRDDQRAFEWYLRAAMKGHPGAQSGVGWYYEVGRGLPAPDLMRAYMWYTLSAIGGDPDAAISLEEVAKKMTAEEINKAHVLVADYKVWMYPFR”, the protein production entry is on record as “failed”.

On to “MRTLAVISAGLSTPSSTRQIADSISEAVTAAVSARGEALSVSTIELSELIPDLMTAMTTRVHTTKLEEITSALSASDGLVVATPVFKASYTGLFKMFFDILDTDALTGMPTIIAATAGSARHSLVLDYALRPLLSYMRAVVVPTGVFAATEDFGGPEGAEFNKRIARAAGELASLIVEESGNVGLEHHHHHH”, for which the protein production entry is on record as “failed”.

On to “MRTLEPPNRMRIGLMGIVVALLVVAVGQSFTSVPMLFAKPSYYGQFTDSGGLHKGDRVRIAGLGVGTVEGLKIDGDHIVVKFSIGTNTIGTESRLAIRTDTILGRKVLEIEPRGAQALPPGGVLPVGQSTTPYQIYDAFFDVTKAASGWDIETVKRSLNVLSETVDQTYPHLSAALDGVAKFSDTIGKRDEQITHLLAQANQVASILGDRSDQVDRLLVNAKTLIAAFNERGRAVDALLGNISAFSAQVQNLINDNPNLNHVLEQLRILTDLLVDRKEDLAETLTILGRFSASFGETFASGPYFKVLLANLVPGQILQPFVDAAFKKRGISPEDFWRSAGLPAYRWPDPNGTRFPNGAPPPPPPVLEGTPEHPGPAVPPGSPCSYTPPADGLPRPWDPLPCANLTQGPFGGPDFPAPLDVATSPPNPDGPPPAPGLPIAGRPGEVPPNVPGTPVPIPQEAPPGARTLPLGPAPGPAPPPAAPGPPAPPGPGPQLPAPFINPGGTGGSGVTGGSEN”, for which the protein production result is recorded as “failed”.

On to “MRTLTTLLGNSQKLDGGAMFGNAPRALWSRWMQPDAENRIDLGCRALLVRDGERNVLVEAGIGAFFPPALRQRYGVQEERHVLLDSLAAVGLDDADIDVVLLTHLHFDHAGGLLAAWEEGQPARLLFPNAHFVSGRRHWQRARQPHPRDRASFVPELLDLLQASGRLELLDDGERSAHLGEGWRFHFSEGHTPGQMLPEIAMPDGPVVFSGDLIPGAPWVHLPLTMGYDRFPEGLIEEKERLLDSLIARNGRLVFTHDPCVAMGRVRRDEQERYSLYDTLERVENLEA”, for which the protein production result is listed as “failed”.

For “MRTVSHPTPLRRAPVQRRSAERLTRILDACADLLDEVGYDALSTRAVALRADVPIGSVYRFFGNKRQMADALAQRNLERYAERVTERLTEAGDGGWRGALDTVLDEYLAMKRTAPGFSLIDFGNQIPVGDRHAVPNHRVAERLTELLSGYLGRRPDDDLRRVFLVAVETADTLVQLAFRVAPDGDEKIIEEARELLRAYLGRVLD”, the protein production result is given as “not failed”.

In the case of “MRTYTAQPDTTRPDTLTVTTYNIGYLSGMRNNEPVVRPDSLFHANMDQAAGYLRAAAPDIVALQEIDFGGARAAHVHQLDTLAARLGYPGAAQAVNWDERYLPFPYGRPAVHFGRTLSGQAVLSRFPVRRHVRRTLPRPPQPFFRDAFYLDRLAQVGVVDVDGRPLAVINVHLEAFDVGTRETQARVVNDLYRRLADRGIPTLLLGDFNSSLSSGEEGGQAGAEDATMQHILAGTDLRSAVNTASADTASATYPADAPARTIDHIFYPPQFFEAVDTQRWCGRPAPPSDHCAVTAALRLPSRAKWPSHEALPPLEDSPTE”, the protein production entry is “failed”.

With “MRVAVAGFGGVGRRLARLLLERGGSHGLSLAAAIDSRGHAVFDSRGCVEEALSAPRGGLAGVSCGAPGSGPGVLRGLGYDALVLTTASSPGTGEPGLGYARAALEDGKVVVAADKPPVALLLLEHGGPPPGLFYKATVMAGTPLIDLLRVGLAGRRVLRVVGVLNGTSNYILNLLMEGV”, the protein production result is given as “failed”.

Regarding “MRVEALGKVAPLPQAQTPVSLNEASLEELMALPGIGPVLARRIVEGRPYARVEDLLKVKGIGPATLERLRPYLRP”, the protein production entry is on record as “not failed”.

For “MRVEENYHAFFTEASGFLNERIFKDYLRRLAYGIDASCYRYIPKIVAWVKNEEEVQKLCVLAKKHGVSLTFRAAGSSLSGQAICDGVLVMVTHFFKDAQILDNAQSIQLSCGVIGSNANALLKPYHKKIGPDPSTINTAMIGGIVANNASGMCCGVEQNSYKTLKSLRVILADGTLLDTANQESVESFKNAHKDLIEGVLNLRKEILEDKELHALIKKKYEIKNTTGYSLNALIDFEDPIEIISHLFIGSEGTLGFISSVELECVKDYAYKTCALLFYENLERCAKAAQILAALKAKQPEMISSAELMDYACLKSVKGLEGMPSVVLEIKEPNACLLIQSESDDPLILENSMQTILNALSAIPVVLDSQISSDPSIYQSWWKIRKGIFPIAASKRKSQSSVIIEDICFSQEDFVEGAKAIEGLLKKHGFKDNGIIFGHALSGNLHFVVTPILENEAERKAFENLVSEMFLMVSKSSGSIKAEHGTGRMVAPFVEMEWGEKAYKIHKQIKELFDPNGILNPDVIITNDKEIHTKNLKSIYPIEEHLDMCMECGFCERICPSKDLSLTPRQRIVIHREVEHLKERVSHGHHEDQVLLDELLKESEYLAHATCAVCHMCSTLCPLEIDTGKIALNYYQKNPKGEKIASKILNHMQTTTSMARFSLKSARLVQNLIGSHNLVSLTKGIKKFIKPFPKAFYYMPKNNAYPLENKTLKSEEKVIYFSTCINRSFAPSNKMADKRCIQEVFESLCQKAKVSVMYPNGLNALCCGKAFINYTDLTKQNNEKNHAIFLQLSDKGKIPIVLDHSACSTHFFKQMKAYKDLKVYDLSVYIEEVLSPKLKFNPINEDIGLYTMCALKLENKEELLFNLAKKCTLGEIVIHKETGCCGFAGNKGFFTPELNESALNGFQAFYQSYDLKRGFSTSSTCEIGLSEKTRFSWQHIAYLVDACTL”, the protein production entry is listed as “failed”.

In the case of “MRVIVTEYQPAWVEQFEEEAQALKQILKENCLKVEHIGSTSVPNLAAKPIIDFLVIVEEIEKVDLLQWEFERIGYEYMGEFGLSGRRYLRKGPIKRTHHVHIYQFDNTQEILRHLAFRNYLRENPAIATTYGTLKKQLAQAHPDSIDKYMDGKDAFIKKIEKEALKKYWE”, the protein production result was “not failed”.

For “MRVLAIRHVEIEDLGMMEDIFREKNWSFDYLDTPKGEKLERPLEEYSLVVLLGGYMGAYEEEKYPFLKYEFQLIEEILKKEIPFLGICLGSQMLAKVLGASVYRGKNGEEIGWYFVEKVSDNKFFREFPDRLRVFQWHGDTFDLPRRATRVFTSEKYENQGFVYGKAVGLQFHIEVGARTMKRWIEAYKDELEKKKIDPRLLLETAEREEKVLKGLLRSLLERMVES”, the protein production result is “not failed”.
